Tested on: K4 kissing-loop RNA reporter
Assay: apparent KD of K4 kissing-loop reporter; higher = weaker reporter binding
Conditions: Eterna round: R107
Procedure: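 RNA-MaP round R107: designed RNA switches with theophylline, tryptophan, arginine or FMN aptamers are transcribed on-chip within common flanks. They are titrated with a labelled K4 kissing-loop RNA reporter in RNA-MaP buffer (100 mM Tris pH 7.5, 80 mM KCl, 4 mM MgCl2), without ligand or with the indicated ligand. Median apparent KD per design.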

[1] = input ligand: theophylline 20 uM
[2] = input ligand: tryptophan 2.4 mM
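Note: bound reporter read as fluorescence of individual clusters on recovered sequencing chips by microscopy, with normalized cluster intensities fitted with a binding model.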

Sequence | apparent KD of K4 kissing-loop reporter (input ligand: FMN 200 uM) | apparent KD of K4 kissing-loop reporter (input ligand: arginine 13.2 mM) | apparent KD of K4 kissing-loop reporter (input ligand: none) | apparent KD of K4 kissing-loop reporter [1] | apparent KD of K4 kissing-loop reporter [2]
UGUACCGAGUCAGGAUAUGCCGUCGAAAGACGAAAGCAGUGAUGUUGCAUCGAUCGAAAGAUCGUUGCAGAAGGGACUUGGUACU [FmnBS 23 #SwitchBubble #StaticStem #DoubleMagnetSystem] | 873 nM | 164 nM | 244 nM | 158 nM | 297 nM
UGUACCGAGUCAGGAUAUGGCGUCGAAAGACGAAACCAGUGAUGUUGGAAUCGAUCGAAAGAUCGUCCAGAAGGGACUUGGUACU [FmnBS 21 #SwitchBubble #StaticStem #DoubleMagnetSystem] | 204 nM | 382 nM | 377 nM | 349 nM | 359 nM
UGUACUCUGAAAGGAUAUGUGAGCCCUUUUUGUUAGUGAUGUUGACACGGAAACACCAUCAGACUUACAGAAGGUUCGUUGGGUA [theeternabot_sameState_KL_FMN_B_17] | 375 nM | 183 nM | 241 nM | 286 nM | 252 nM
UGUAUGUGAUUUGAUACCAGACCAGCUGGUGGUAUCUGAGUGAUGUUCAGGUAGGUUUGGGUCCCUUGGCAGCAAAUCGCAUACU [KL-SSTheoB26] | 168 nM | 118 nM | 153 nM | 150 nM | 147 nM
UGUCAUUGGUCGGCCGCCACUUCAUAAAGAGUGAUGUUCUAAAAGACGGAUCGAAAGAUCUGUCGAAGGACCGGGAUCGAUGACU [FiskerMod 11 - Jieux - Same State - Tryptophan B] | 1200 nM | 559 nM | 998 nM | 569 nM | 275 nM
UGUCAUUGGUCGGCCGCCACUUCGUGUGGAGUGAUGUUUUGUAGAUUGUGUUGAAAGGUAUGGUGAAGGACCGGGACCGAUGACU [FiskerMod 21 - Jieux - Same State - Tryptophan B] | 1100 nM | 368 nM | 1090 nM | 242 nM | 997 nM
UGUCAUUGGUCUGAUACCAGAAGAAAUCUGGAGUGAUGUUCCAAGUACGACAAAAGUCGCUUCCCUUGGCAGCAGACCGAUGACU [TheoBS 21 #SwitchBubble 13 #StaticStem] | 705 nM | 510 nM | 638 nM | 406 nM | 683 nM
UGUGAUGUGUAGAGUGAUGUUUUGAAGGAUACCAGAGUGUUGUUAUUCCCUUGGCAGCUUGAGUGAUGUUUGAUGUUGUUGUUGU [efvrmullin] | 228 nM | 120 nM | 194 nM | 133 nM | 152 nM
UGUGUUGUGUAGUGUUAUGUUUUGAGGGAUACCAGAGUGUUUUUAUUCCCUUGGCAGCUUGAGUGAUGUUUGAUGUUGUUGUUGU [jlljmullin] | 297 nM | 178 nM | 218 nM | 219 nM | 184 nM
UGUGUUUUUUUGAUGUUUGUUGUAAAAUGGCAGGAUAUCGUAGAGGCGAGAAGGGCUUUUAUGCGUUAUGAGUGAUGUUUGUAGG [qqdqmullin] | 316 nM | 297 nM | 315 nM | 336 nM | 241 nM
UUACUACCCAGUGAUGUUGGGUAGCGGCCACGAGGACCGGUACGGCCGCCACUCGAGGUUCGGGAGUGAUGUUCCUACUAUUUGG [Same state Tryptophan A GF 6] | 328 nM | 341 nM | 360 nM | 402 nM | 160 nM
UUAGAGAUCUCAGGAUAUCAGUGAUGUUGGUAUCAAGAUCUGAGAUAGAAUUCUAUCUCAGAUCAAUGAGAAGGGAGAUCUCAUU [AK3.3 Exc FMN B] | 374 nM | 110 nM | 105 nM | 176 nM | 118 nM
UUAGCCUAGCCAUAGUGAUGUUGUGGAAUACGAGGACCGGUACGGCCGCCACUCGCUCGACGGUGAUGACAUCAACGACCUUUAU [theeternabot_sameState_KL_Trp_A_38] | 312 nM | 304 nM | 311 nM | 314 nM | 285 nM
UUAGCGACAAGUCAGAUUCUGACAAUUGAUACCAGAUAGAAUUCUAUCCCUUGGCAGCAGUGAUGUUGUUGCAAUAAGUCGCAUU [AK2 Exc Theophylline A] | 322 nM | 253 nM | 317 nM | 282 nM | 266 nM
UUAGCUCUAUAGAGCAAGAGGUCAACUGAUACCAGAGGCUAUAGCCUCCCUUGGCAGCGGAACGAGUGAUGUUCGAGACCUCAUU [AK6 SS Theophylline A] | 1280 nM | 816 nM | 1560 nM | 750 nM | 1440 nM
UUAGGAGUGGAAGGAUAUCCUGGUGUGGGUGAUGUUAGUGAUGUUGGAGGUGCAGUGAUGUUGCGCGGAGAAGGUCCGGUGUUGA [BDazzled - #5 - Exc. FMN B] | 280 nM | 299 nM | 372 nM | 435 nM | 263 nM
UUAGGAGUGGGAGGAUAUCCUAAUGUGGGUGAUGUUAGCGAUGUUGAAAGUGUAGUGAUGUUGUGCGGAGAAGGUCCAGUGUUGA [BDazzled - #12 - Exc. FMN B] | 197 nM | 141 nM | 175 nM | 269 nM | 168 nM
UUAGUCUAGAGAAGGAGCGCAGUGAUGUUGCGAAUAAUAAUAAUAAUAAAUAAAUAAUCGAUGCAGGUAGGUCGCUCUAGACAUU [AK1 Exc Arginine B] | 217 nM | 422 nM | 288 nM | 335 nM | 213 nM
UUAUAACCCAGUGAUGUUGGGUAGCGGCCACGAGGACCGGUACGGCCGCCACUCGAGGUUUAACCAGUGAUGUUGGACUAUAUAA [Same state Tryptophan A GF 4] | 51 nM | 35.2 nM | 47 nM | 34.5 nM | 23.7 nM
UUAUACUCAUGUAAAGAACUAGUAACCGAAGGAGCGACAUAAAAGUCAGGUAGGUCGCGGAUUUCUCAGUGAUGUUGAGAGCAUU [JR_SSArginiA_Sub012] | 109 nM | 192 nM | 121 nM | 185 nM | 93.9 nM

Sequence | apparent KD of K4 kissing-loop reporter (input ligand: FMN 200 uM) | apparent KD of K4 kissing-loop reporter (input ligand: arginine 13.2 mM) | apparent KD of K4 kissing-loop reporter (input ligand: none) | apparent KD of K4 kissing-loop reporter [1] | apparent KD of K4 kissing-loop reporter [2]
UUAUUAUUCAGUGAUGUUGAAUUUAUUUCAGAGGAUAUGCAUAAAUGCAGAAGGCUGUAAUACUAUACUUUAAUAAAUUAAAUUU [JR_SSFMNA_Sub018] | 242 nM | 250 nM | 248 nM | 262 nM | 203 nM
UUCAGGUGUUCGGCCGCCACUCCAGUGAUGUUGGAGUGGCUUCACAAGGGCCAGGACAAUGUAAGGAGGACCGGGAAUAUCGCAG [Quonerar] | 127 nM | 116 nM | 123 nM | 89.2 nM | 134 nM
UUCUAAAUGUCUGAUACCAGAGAAAAUAUAUGUAGUGAUGUUAUAUACAAAUUUAAUAAGCUCCCUUGGCAGCAGUAUGAAUUUU [AstrosExc-TheB#13] | 705 nM | 744 nM | 949 nM | 755 nM | 595 nM
UUCUGCAUCUCGGCCGCCACUCACUAGUGAUGUUAGUAAGGAGCGACUAGAAAAGUCCAGUUAAUGAGGACCGGGAGAAGCUCUU [Exclusion Tryptophan B GF 1] | 281 nM | 298 nM | 312 nM | 199 nM | 217 nM
UUCUGCAUCUCGGCCGCCACUCACUAGUGAUGUUAGUAAGGAGCGACUAGACAUGUCCCGUUAUUGAGGACCGGGAGAGGCUCUU [#13 K4 Tryptophan B Exclusion] | 208 nM | 162 nM | 192 nM | 162 nM | 140 nM
UUGACCAAAUUCCGGUGAUCAUCGCCGCCGCGAGGACCGGUACGGCCGCCACUCGUCCCUAUGCUCGGAGUAGUGAUGUUAUUCA [theeternabot_sameState_KL_Trp_A_43] | 557 nM | 197 nM | 529 nM | 280 nM | 574 nM
UUGUUUGGUUGAGAGGUUGGGCGAGAUGAUACCAGUAGAGAAGAGUACCCUUGGCAGCAUAGGAGAGAUAUAGUGAUGUUGUAUG [SSTheophA.S] | 258 nM | 187 nM | 320 nM | 498 nM | 299 nM
UUGUUUGGUUGAGAGGUUGGGCGAGAUGAUACCAGUAUAUAAGAAUACCCUUGGCAGCAUAAGAAAGAUAUAGUGAUGUUGUAUA [SSTheophA.M] | 520 nM | 379 nM | 645 nM | 672 nM | 457 nM
UUUAAAUAUAGUGAUGUUAUAUAACAAUGACGAGGACCGGUACGGCCGCCACUCGAGAGAGAUAAUGGUCAUACAAAUGUAUGUU [AstrosSSTryA#10] | 672 nM | 677 nM | 738 nM | 789 nM | 529 nM
UUUACUCCGAGUGAUGUUCGGCGUAUCUGACGAGGACCGGUACGGCCGCCACUCGGUUCGACUACGAAGGCCUUGGCCACAGAUU | 268 nM | 174 nM | 257 nM | 284 nM | 285 nM
UUUAUAAAGUCGGCCGCCACUGGAUUUAUAUUUGUUUAGUCUGGAUCAAAGUGAUGUUUUGAGUCCAGGACCGGGACAUUUGUUA [whbob_Ex_Tryp_B_w36] | 92.1 nM | 85.9 nM | 93.5 nM | 91.9 nM | 172 nM
UUUAUGAUGUCGGCCGCCACUGGAUUAAUAUGUGUGUAAUCUAGUUCUGAGUGAUGUUUAGAGUCCAGGACCGGGACAUUAGUUA [#12 K4 Tryptophan B Exclusion] | 719 nM | 476 nM | 652 nM | 832 nM | 700 nM
UUUAUUAAGACGGCCGCCACUGAAUUAGAGUGAUGUUCUAUAAUUUCUAAAUUAAAUUUAUUCAACAGGACCGGGUCAAUUAUUA [JR_SSTryptoB_Sub011] | 384 nM | 364 nM | 382 nM | 392 nM | 314 nM
UUUAUUAAGACGGCCGCCACUGAUUCAUAGUGAUGUUAUGAUAUAAUUUUAGUGAUAUGCAUUAGCAGGACCGGGUCAAUUAUUA [JR_ExcTryptoB_Sub017] | 158 nM | 146 nM | 166 nM | 142 nM | 173 nM
UUUGCAAAGUCGGCCGCCACUCCGGGCCCUAUAAAUGGGCGCAGUGAUGUUGCGGCUAGGCCUCUGAGGACCGGGACUUUGUAAA [Inusleve] | 151 nM | 52.1 nM | 52.3 nM | 77.2 nM | 179 nM
UUUGGAUUGCACUAAGAGCGCAAGCGCCAACGAGGACCGGUACGGCCGCCACUCGCGGAGGAGUCCAGUGAUGUUGGACGGCCCG [Onenusan] | 233 nM | 359 nM | 359 nM | 180 nM | 172 nM
UUUGUAUAGGGAAGGAGCGUGAAUGAUAAUGAAUAUAGUGAUGUUAUAUAUAAGAAAGAAUCACAGGUAGGUCGCCCGGAUGAGG [SSArgB.K] | 557 nM | 400 nM | 565 nM | 855 nM | 412 nM
UUUUAAAUGUCUGAUACCAGAGAAAAUUUAUGUAGUGAUGUUAUAUACAAAUUAAAUAAGCUCCCUUGGCAGCAGUAUUAAUUUU [AstrosExc-TheB#9] | 583 nM | 596 nM | 846 nM | 623 nM | 552 nM
UUUUAUAACCGAAGGAGCGCGUGGGCGCAGUGAUGUUGCGCCCGACAUCACUUCAACUUAACGCAGGUAGGUCGCGGUUUUAAUA [Arginine B (Excl) V2] | 157 nM | 132 nM | 159 nM | 158 nM | 153 nM

Source: the supplement of paper PMC9170038
